These results are taken from paper PMC13480645.

As a reminder, the Kd is the concentration at which binding is half-saturated. Low values mean tighter binding, high ones weaker binding. By kon is commonly meant the rate constant with which the complex forms. A high value points to faster complex formation.

Test [1] has as its target SARS-CoV-2 S-2P protein (SARS-CoV-2 | bacteriophage T4).
The next test deals with S2P6 (human). The test can be described thus: BLI.
Sequence of S2P6 (human) (VH, as listed by the source, chain 1 of 2): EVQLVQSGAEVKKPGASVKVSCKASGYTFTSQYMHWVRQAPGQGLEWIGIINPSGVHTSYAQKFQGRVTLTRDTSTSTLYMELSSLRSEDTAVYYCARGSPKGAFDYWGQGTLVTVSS
Sequence of S2P6 (human) (VL, as listed by the source, chain 2 of 2): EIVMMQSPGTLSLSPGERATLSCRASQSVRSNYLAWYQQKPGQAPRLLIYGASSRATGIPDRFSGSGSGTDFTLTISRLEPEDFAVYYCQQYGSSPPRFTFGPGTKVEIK

Sequence of S2P6 (antibody) (VH): as the sequence (VH, as listed by the source, chain 1 of 2) above
Sequence of S2P6 (antibody) (VL): as the sequence (VL, as listed by the source, chain 2 of 2) above

The substance S2P6 (antibody) gave an IC50 of neutralisation of SARS-CoV-2 pseudovirus (HeLa-hACE2 cells) in test [1] of 6.16 µg/mL.
On to “SARS-CoV-2 S-2P protein (domain or fragment)”, for which, in the test with S2P6 (human), the Kd came to 1.3 nM and the kon is 559000 M⁻¹ s⁻¹.
